Patent US20120014950A1, “Antibodies That Specifically Bind to DR3” (Xencor, Inc., priority 2010, published 2012)
“Also recorded” adds a separate entry of the source.

Legend:
primary human T cells = assay: Primary human T cell assay (proliferation, cytokine secretion); format: cell-based
Protocol: A primary human T cell assay can be performed using standard methods known in the art. Briefly, primary human T cells are incubated with 100 ng/mL human TL1A ligand and appropriate concentrations of the antibody molecules to be tested for 72 hours. This incubation is followed by a 24 hour incubation with 5 ng/mL IL-2. Proliferation is measured by a standard luminescent protocol. The amount of cytokine secreted is determined by standard methods in the art.
A primary human T cell assay was performed to determine the effect of the 11H08-Fab-HSA on proliferation and the secretion of IFNγ or GM-CSF from cells treated with TL1A. […] 3 μg/mL 11H08-Fab-HSA, 3 μg/mL hDR3-Fc, or 3 μg/mL full length 11H08 immunoglobulin were used in this experiment. Results were compared to a set of cells treated only with media and cells that were treated only with 100 ng/mL TL1A, as indicated.

human DR3 [1] = target: T1, human DR3 (Homo sapiens, UniProt Q93038); assay: TF-1 assay (cell viability, cycloheximide, Cell Titer Glo); format: cell-based; design: endogenous in cells; host or cells: TF-1 (premyeloid); conditions: TF-1 cells with cycloheximide; luminescence
T1 sequence (Q93038 25-417): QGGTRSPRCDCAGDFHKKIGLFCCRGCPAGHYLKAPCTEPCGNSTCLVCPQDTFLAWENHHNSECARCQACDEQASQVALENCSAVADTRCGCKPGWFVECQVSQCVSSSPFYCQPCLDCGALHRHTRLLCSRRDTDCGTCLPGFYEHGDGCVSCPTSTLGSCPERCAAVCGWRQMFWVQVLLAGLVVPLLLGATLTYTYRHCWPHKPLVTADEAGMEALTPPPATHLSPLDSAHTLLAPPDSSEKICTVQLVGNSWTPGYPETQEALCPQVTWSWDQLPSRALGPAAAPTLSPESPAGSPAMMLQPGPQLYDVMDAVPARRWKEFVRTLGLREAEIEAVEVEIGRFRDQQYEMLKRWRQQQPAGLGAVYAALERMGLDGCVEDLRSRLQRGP

human DR3 [2] = target: T1, human DR3; assay: TL1A binding inhibition assay (flow cytometry); design: expressed in transfected cells; host or cells: HEK293F (transient); conditions: HEK293F cells transiently expressing human DR3, 1 μg/mL human TL1A
Protocol: The anti-DR3 monoclonal antibody 11H08 was assayed for its ability to inhibit human TL1A binding to human DR3 using techniques known to those skilled in the art. Briefly, HEK293F cells transiently expressing human DR3 were incubated with 1 μg/mL of human TL1A in the presence of either an unrelated antibody (mIgG1) as an isotype control that was known not to bind TL1A or DR3, or an anti-DR3 monoclonal antibody (11H08), for 20 minutes at room temperature. Binding was detected using an anti-TL1A-biotin polyclonal antibody followed by Streptavidin PE. The ability of the anti-DR3 monoclonal antibody to inhibit binding of TL1A to DR3 was measured by flow cytometry.

human DR3 [3] = target: T1, human DR3; assay: TF-1 assay (cell viability, cycloheximide, Cell Titer Glo); format: cell-based; design: endogenous in cells; host or cells: TF-1 (premyeloid); conditions: TF-1 cells, 10 ng/mL hTL1A and cycloheximide; luminescence
Protocol: Treatment of TF-1 cells with human TL1A (the ligand for DR3) in the presence of cycloheximide induces cell death (Migone et al., Immunity 16:479-492 (2002)). A TF-1 assay was used to test the ability of 11H08 to block TL1A activity through the DR3 receptor.
A TF-1 assay can be performed according to methods known in the art. Briefly, premyeloid TF-1 cells are maintained in 10% FBS (fetal bovine serum), 1×RPMI, 1% Pen-Strep with Glutamine, and 2 ng/mL GM-CSF. The cells are grown until log phase, washed three times in PBS, and incubated with the antibodies to be tested for one hour. After this pre-incubation, between 50,000 and 100,000 cells are seeded per well. The cells are combined with 10 ng/mL hTL1A, 10 μg/mL cycloheximide (Sigma-Aldrich, cat #C1988-1G) and the antibodies to be tested and then incubated for 24 to 72 hours. Cell viability is measured using Cell Titer Glo (Promega, cat #G7570). This assay allows cell viability to be determined by measuring the luminescent signal which is proportional to the amount of ATP present. The ATP is indicative of metabolically active cells and higher luminescence signals reflect greater cell viability.
In order to test the effect of 11H08-scFv-HSA and the humanized anti-DR3-Fab molecules, a TF-1 assay was used to test the ability of these various anti-DR3 fragments to block TL1A induced activity. The TF-1 assay was performed as indicated above in Example 5, but where the various anti-DR3 fragments were used instead of the whole 11H08 immunoglobulin as described.

[4] = 100 ng/mL hTL1A, 3 μg/mL test molecule

B1: hDR3-Fc: human DR3-Fc fusion protein, known to bind TL1A and inhibit activity (protein)
chain: QGGTRSPRCDCAGDFHKKIGLFCCRGCPAGHYLKAPCTEPCGNSTCLVCPQDTFLAWENHHNSECARCQACDEQASQVALENCSAVADTRCGCKPGWFVECQVSQCVSSSPFYCQPCLDCGALHRHTRLLCSRRDTDCGTCLPGFYEHGDGCVSCPTSTLGSCPERCAAVCGWRQ
modifications: left off: a dimerising Fc or GST
TL1A-induced cell proliferation (primary human T cells; [4]): inhibited | TL1A-induced cytokine secretion (IFNγ, GM-CSF) (primary human T cells; [4]): inhibited

B2: 11H08: mouse anti-human DR3 monoclonal antibody, isotype IgG1κ, from hybridoma 11H08; VH SEQ ID NO:7, VL SEQ ID NO:20 (antibody, listed as Mus musculus, V domains shown)
VH: EVMLVESGGGLVKPGGSLKLSCAASGFTFTNYAMSWVRQTPEKRLEWVATITSGGSYIYYLDSVKGRFTISRDNAKSTLYLQMSSLRSEDTAIYNCARRKDGNYYYAMDYWGQGTSVTVSS
VL: DIVLTQSPASLAVSLGQRATISCRASESVDSYGNSFIHWYQQKAGQPPKLLIYRASNLESGIPARFSGSGSRTDFTLTINPVEADDVATYYCQQSYEDPWTFGGGTKLEIK
TF-1 cell viability / apoptosis induction (agonist, TL1A-like activity) (human DR3 [1]): activated the DR3 receptor, thereby inducing TL1A-like activity | proliferation and cytokine secretion (agonist activity) (primary human T cells; 3 μg/mL antibody alone): induced TL1A-like activity | inhibition of human TL1A binding to human DR3 (human DR3 [2]): inhibited human TL1A binding to the human DR3 receptor

B3: 11H08-Fab: Fab of 11H08 VH/VL (SEQ ID NOs:7, 20) with human IgG1 CH1 and Cκ; parental anti-DR3 molecule (antibody, listed as Mus musculus, V domains shown)
VH: EVMLVESGGGLVKPGGSLKLSCAASGFTFTNYAMSWVRQTPEKRLEWVATITSGGSYIYYLDSVKGRFTISRDNAKSTLYLQMSSLRSEDTAIYNCARRKDGNYYYAMDYWGQGTSVTVSS
VL: DIVLTQSPASLAVSLGQRATISCRASESVDSYGNSFIHWYQQKAGQPPKLLIYRASNLESGIPARFSGSGSRTDFTLTINPVEADDVATYYCQQSYEDPWTFGGGTKLEIK
modifications: human IgG1 CH1 and Ckappa constant domains
notes: parental anti-DR3 molecule
inhibition of TL1A-induced apoptosis (TF-1 cell viability) (human DR3 [3]): prevented TL1A-induced apoptosis; also recorded: inhibited TL1A-induced apoptosis in TF-1 cells

B4: H1L2-Fab: humanized anti-DR3 Fab, VH H1 (SEQ ID NO:9), VL L2 (SEQ ID NO:22, Leu at Kabat 104) (antibody, V domains shown)
VH: EVQLVESGGGLVKPGGSLRLSCAASGFTFTNYAMSWVRQAPGQRLEWVSTITSGGSYIYYLDSVKGRFTISRDNAKSTLYLQMNSLRAEDTAVYNCARRKDGNYYYAMDYWGQGTTVTVSS
VL: DIVLTQSPSSLSASVGDRVTITCRASESVDSYGNSFIHWYQQKPGQPPKLLIYRASNLESGIPARFSGSGSRTDFTLTISSLQPEDFATYYCQQSYEDPWTFGGGTKXEIK
modifications: Fab constant domains; humanized murine antibody
inhibition of TL1A-induced apoptosis (TF-1 cell viability) (human DR3 [3]): inhibited TL1A-induced apoptosis in TF-1 cells

B5: H5L2-Fab: humanized anti-DR3 Fab, VH H5 (SEQ ID NO:17), VL L2 (SEQ ID NO:22, Leu at Kabat 104) (antibody, V domains shown)
VH: EVQLLQSGAEVKKPGASVKVSCKASGFTFTNYAMSWVRQAPGQRLEWVATITSGGSYIYYLDSVKGRFTISRDNAKSTLHLQMNSLRAEDTAVYNCARRKDGNYYYAMDYWGQGTTVTVSS
VL: DIVLTQSPSSLSASVGDRVTITCRASESVDSYGNSFIHWYQQKPGQPPKLLIYRASNLESGIPARFSGSGSRTDFTLTISSLQPEDFATYYCQQSYEDPWTFGGGTKXEIK
modifications: Fab constant domains; humanized murine antibody
inhibition of TL1A-induced apoptosis (TF-1 cell viability) (human DR3 [3]): inhibited TL1A-induced apoptosis in TF-1 cells
